Experimental data published in article PMC9733425 (Journal of structural biology, 2022).

Target: the molecule itself
Test: SEC-MALS

B1: SAM1 domain of SASH1 (WT human SAM1::6xHis, residues 627-703) (domain or fragment, UniProt O94885 627-703, looked up)
chain: RRKGRPPQPKSVEDLLDRINLKEHMPTFLFNGYEDLDTFKLLEEEDLDELNIRDPEHRAVLLTAVELLQEYDSNSDQ
B1 was tested, and the “stoichiometry N” value was 4.
